Measurements reported in PMC10397247.
Values belong to the binder of their own block, whether it stands above or below them.

Assays:
4H895-AA = target: T1, 4H895-AA; assay: two-hybrid library CCmax; conditions: mean of both orientations;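 note: natural log of median RNA to DNA barcode read ratio; higher means stronger binding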
T1 chain: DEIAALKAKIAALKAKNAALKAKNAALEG

4H535-AA = target: T2, 4H535-AA; assay: two-hybrid library CCmax; conditions: mean of both orientations;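 note: natural log of median RNA to DNA barcode read ratio; higher means stronger binding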
T2 chain: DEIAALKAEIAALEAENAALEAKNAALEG

4H3782-AA = target: T3, 4H3782-AA; assay: two-hybrid library CCmax; conditions: mean of both orientations;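 note: natural log of median RNA to DNA barcode read ratio; higher means stronger binding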
T3 chain: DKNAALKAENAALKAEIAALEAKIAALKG

4H3365-AA = target: T4, 4H3365-AA; assay: two-hybrid library CCmax; conditions: mean of both orientations;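 note: natural log of median RNA to DNA barcode read ratio; higher means stronger binding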
T4 chain: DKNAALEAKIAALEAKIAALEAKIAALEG

4H355-AA = target: T5, 4H355-AA; assay: two-hybrid library CCmax; conditions: mean of both orientations;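 note: natural log of median RNA to DNA barcode read ratio; higher means stronger binding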
T5 chain: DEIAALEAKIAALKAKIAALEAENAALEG

4H3020-AA = target: T6, 4H3020-AA; assay: two-hybrid library CCmax;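 note: natural log of median RNA to DNA barcode read ratio; higher means stronger binding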
T6 chain: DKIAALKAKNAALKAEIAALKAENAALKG

GCN2_T = assay: two-hybrid library CCmax
4H486-AA = target: T7, 4H486-AA; assay: two-hybrid library CCmax; conditions: mean of both orientations
T7 chain: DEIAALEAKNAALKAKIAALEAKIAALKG

4H3705-AA = target: T8, 4H3705-AA; assay: two-hybrid library CCmax; conditions: mean of both orientations
T8 chain: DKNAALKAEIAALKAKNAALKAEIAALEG

4H58-AA = target: T9, 4H58-AA; assay: two-hybrid library CCmax; conditions: mean of both orientations
T9 chain: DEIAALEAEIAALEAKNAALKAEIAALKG

4H_APH = target: T10, 4H_APH; assay: two-hybrid library CCmax; conditions: mean of both orientations
T10 chain: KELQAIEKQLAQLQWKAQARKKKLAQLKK

4H3651-AA = target: T11, 4H3651-AA; assay: two-hybrid library CCmax; conditions: mean of both orientations
T11 chain: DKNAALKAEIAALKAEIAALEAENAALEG

4H465-AA = target: T12, 4H465-AA; assay: two-hybrid library CCmax; conditions: mean of both orientations
T12 chain: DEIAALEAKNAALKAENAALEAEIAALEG

4H_GCN4 = assay: two-hybrid library CCmax; conditions: mean of both orientations
4H_BCR = target: T13, 4H_BCR; assay: two-hybrid library CCmax; conditions: mean of both orientations
T13 chain: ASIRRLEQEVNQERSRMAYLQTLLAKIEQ

P7A-bP = target: T14, P7A-bP; assay: two-hybrid library CCNG1
T14 chain: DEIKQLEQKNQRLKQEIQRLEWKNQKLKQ

P8A-bP = target: T15, P8A-bP; assay: two-hybrid library CCNG1
T15 chain: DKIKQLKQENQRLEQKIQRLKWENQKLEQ

P9A-bP = target: T16, P9A-bP; assay: two-hybrid library CCNG1
T16 chain: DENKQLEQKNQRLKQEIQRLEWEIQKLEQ

O3-bP = target: T17, O3-bP; assay: two-hybrid library CCNG1
T17 chain: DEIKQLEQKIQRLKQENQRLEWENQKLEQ

O8-bP = target: T18, O8-bP; assay: two-hybrid library CCNG1
T18 chain: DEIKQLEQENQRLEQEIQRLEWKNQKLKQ

O4-bP = target: T19, O4-bP; assay: two-hybrid library CCNG1
T19 chain: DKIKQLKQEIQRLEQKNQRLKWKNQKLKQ

O5-bP = target: T20, O5-bP; assay: two-hybrid library CCNG1
T20 chain: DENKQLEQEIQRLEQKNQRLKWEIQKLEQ

O7-bP = target: T21, O7-bP; assay: two-hybrid library CCNG1
T21 chain: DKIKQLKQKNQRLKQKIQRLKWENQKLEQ

O6-bP = target: T22, O6-bP; assay: two-hybrid library CCNG1
T22 chain: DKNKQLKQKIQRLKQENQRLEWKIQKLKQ

O9-bP = target: T23, O9-bP; assay: two-hybrid library CCNG1
T23 chain: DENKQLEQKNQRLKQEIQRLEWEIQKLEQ

4H741-bN = target: T24, 4H741-bN; assay: two-hybrid library CCNG1
T24 chain: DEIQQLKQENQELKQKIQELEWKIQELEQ

4H2717-bN = target: T25, 4H2717-bN; assay: two-hybrid library CCNG1
T25 chain: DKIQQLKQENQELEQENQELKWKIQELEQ

4H40-bN = target: T26, 4H40-bN; assay: two-hybrid library CCNG1
T26 chain: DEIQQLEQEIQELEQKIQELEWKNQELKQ

4H492-bN = target: T27, 4H492-bN; assay: two-hybrid library CCNG1
T27 chain: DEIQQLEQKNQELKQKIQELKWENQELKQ

4H2839-bN = target: T28, 4H2839-bN; assay: two-hybrid library CCNG1
T28 chain: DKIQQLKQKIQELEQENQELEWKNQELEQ

4H2692-bN = target: T29, 4H2692-bN; assay: two-hybrid library CCNG1
T29 chain: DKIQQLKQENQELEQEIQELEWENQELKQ

4H918-bH = target: T30, 4H918-bH; assay: two-hybrid library CCNG1
T30 chain: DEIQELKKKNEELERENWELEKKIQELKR

4H3057-bN = target: T31, 4H3057-bN; assay: two-hybrid library CCNG1
T31 chain: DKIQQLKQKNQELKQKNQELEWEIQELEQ

4H348-bN = target: T32, 4H348-bN; assay: two-hybrid library CCNG1
T32 chain: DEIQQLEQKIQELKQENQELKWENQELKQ

4H3277-bN = target: T33, 4H3277-bN; assay: two-hybrid library CCNG1
T33 chain: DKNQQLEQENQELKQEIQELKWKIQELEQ

4H477-bN = target: T34, 4H477-bN; assay: two-hybrid library CCNG1
T34 chain: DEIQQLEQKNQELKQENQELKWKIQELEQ

4H319-bN = target: T35, 4H319-bN; assay: two-hybrid library CCNG1
T35 chain: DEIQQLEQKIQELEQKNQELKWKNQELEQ

4H2915-bN = target: T36, 4H2915-bN; assay: two-hybrid library CCNG1
T36 chain: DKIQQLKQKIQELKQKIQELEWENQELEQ

Chain of 4H_GCN4 (chain, as listed by the source): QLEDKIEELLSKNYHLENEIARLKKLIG

interaction score (4H895-AA): -1.5
interaction score (4H535-AA): -1.47
interaction score (4H3782-AA): -1.57
interaction score (4H3365-AA): -1.49
interaction score (4H355-AA): -1.86
interaction score (4H3020-AA): 0.962
interaction score (GCN2_T): -0.848
interaction score (4H486-AA): -1.33
interaction score (4H3705-AA): -1.78
interaction score (4H58-AA): -0.528
interaction score (4H_APH): -2.43
interaction score (4H3651-AA): -1.36
interaction score (4H465-AA): -1.7
interaction score (4H_GCN4): -0.937
interaction score (4H_BCR): -1.87
Binder: DKIAALKAKNAALKAEIAALKAENAALKG [4H3020-AA]

interaction score (P7A-bP): -1.33
interaction score (P8A-bP): 1.1
interaction score (P9A-bP): -0.571
Binder: DEIKQLEQKNQRLKQEIQRLEWKNQKLKQ [P7A-bP]

interaction score (O3-bP): -0.797
interaction score (O8-bP): -0.905
interaction score (O4-bP): 1.15
interaction score (O5-bP): -1.53
interaction score (O7-bP): -1.61
interaction score (O6-bP): -0.828
interaction score (O9-bP): -1.8
Binder: DEIKQLEQKIQRLKQENQRLEWENQKLEQ [O3-bP]

interaction score (P8A-bP): -0.396
interaction score (P9A-bP): 0
Binder: DKIKQLKQENQRLEQKIQRLKWENQKLEQ [P8A-bP]

interaction score (4H741-bN): -0.795
interaction score (4H2717-bN): -0.423
interaction score (4H40-bN): -0.333
interaction score (4H492-bN): 1.22
interaction score (4H2839-bN): -0.832
interaction score (4H2692-bN): 0.234
interaction score (4H918-bH): 1.17
interaction score (4H3057-bN): 0.294
interaction score (4H348-bN): 0.502
interaction score (4H3277-bN): -0.49
interaction score (4H477-bN): -0.405
interaction score (4H319-bN): -0.482
interaction score (4H2915-bN): -0.419
Binder: DKIQQLKQENQELEQEIQELEWENQELKQ [4H2692-bN]
